From patent US20240067683A1, “USE OF MCM8-CGAS-STING-IFN-I SIGNAL PATHWAY AS DISEASE TARGET” (Guangzhou Women and Children's Medical Center, priority 2020, published 2024)
Residue numbers refer to the chain shown, from its start. Names and notes keep the numbering of the source. Values belong to the molecule of their own block, whether it stands above or below them.

How the values were obtained:
[1] = tested on: IFN-I; test: IFN-I in MCM8-knockdown THP-1 cells stimulated with SeV, with CsA or EtBr (mitochondrion-free p0 cells) treatment; type: cell-based, human; conditions: mitochondrion-free p0 THP-1 cells from EtBr treatment
Experimental: (§1) To further verify the mechanism of MCM8-cGAS-STING pathway, the inventors knocked down MCM8 in THP-1 cells, stimulated the cells with SeV, and then treated the cells with MTP complex pore inhibitor cyclosporine A (CsA) ([…]) to inhibit the release of mitochondrial DNA. […] The results were similar when the mitochondria in the cells were removed by EtBr treatment. The process was as follows: THP-1 cells were treated with EtBr to completely remove the mitochondrial DNAs in the cells to construct mitochondrion-free p0 cells, MCM8 was knocked down in normal THP-1 or p0 THP-1, the cells were then stimulated with SeV, the expressions of IFN-α and IFN-β were detected by Q-PCR, and the level of pIRF3 (IRF3 protein activated by phosphorylation) was detected by western blot. […] In Panel D, four columns are taken as a group and represent, from left to right, ctrl siRNA blank control group, MCM8 siRNA control group, ctrl siRNA group of mitochondrion-free cells, and MCM8 siRNA group of mitochondrion-free cells. […] On the contrary, drugs that inhibits or eliminats mtDNA can block the function of MCM8 in regulating IFN-I, and MCM8-knockdown activates cGAS-STING-IFN-I signaling pathway by increasing the amount of cytoplasmic mtDNA.

[2] = tested on: pIRF3; test: pIRF3 level by western blot in normal or p0 THP-1 cells, MCM8 knockdown, SeV stimulation; type: cell-based, human; conditions: mitochondrion-free p0 THP-1 cells from EtBr treatment
Experimental: as §1

[3] = tested on: mitochondrial DNA in cytoplasm; test: Cytoplasmic DNA source by Q-PCR after nuclear-cytoplasmic separation in THP-1 cells; type: cell-based, human; conditions: control THP-1 cells treated with Mdivi, with or without SeV or LPS; similar to MCM8 knockdown
Description: Therefore, in order to explore whether DNA is produced in cytoplasm and the source, the inventors further knocked down MCM8 in THP-1 cells by transfection with MCM8-specific siRNA and stimulated the cells with SeV or poly(dA:dT). The stimulated cells were subjected to nuclear-cytoplasmic separation (Beyotime nuclear protein and cytoplasmic protein extraction kit was used for the nuclear-cytoplasmic separation herein, and the operation followed the instructions, the same below), and the cytoplasmic DNA was extracted for detecting the source of cytoplasmic DNA by qPCR.
Furthermore, the MCM8-knockdown THP-1 cells were stimulated or not stimulated with SeV and LPS, respectively, and treated with or without the mitophagosome formation inhibitor Mdivi, and the cytoplasmic DNA was extracted, and the content of mitochondrial DNA in cytoplasm and the expressions of IFNα and IFNβ were detected by Q-PCR.

[4] = tested on: IFNα and IFNβ; test: Expression of IFNα and IFNβ by Q-PCR in THP-1 cells treated with mitophagosome formation inhibitor Mdivi; type: cell-based, human; conditions: control THP-1 cells treated with Mdivi, with or without SeV or LPS; similar to MCM8 knockdown
[5] = tested on: MCM8; test: Nuclear export of MCM8 detected by nuclear-cytoplasmic separation; type: cell-based
Experimental: The cells were treated with leptomycin B, a nuclear export inhibitor, to inhibit the protein shuttle out of the nucleus, and the expressions of MCM8 in the cytoplasm (cyto) and the nucleus (nuc) were respectively detected by nuclear-cytoplasmic separation. […] It could be seen that ubiquitination was essential for the nuclear export of MCM8. […] (see Panel f, FIG. 12).

[6] = tested on: MCM8; test: TRIM21-mediated ubiquitination of MCM8; type: cell-based
[7] = tested on: IFN-β; test: IFN-β mRNA level by Q-PCR in 293T cells overexpressing MCM8 or its mutants, stimulated with poly(dA:dT); type: cell-based; conditions: 200 ng overexpressed
Experimental: Besides the previously found A276P and S365N mutations, the inventors found other point mutations related to Kawasaki disease, namely, S280C mutation and S764A mutation, and further conducted cloning and cell experiments, comprising the steps of using 293T cells to separately overexpress 200 ng MCM8, and each of mutants, namely, MCM8 (A276P), MCM8 (S280C), MCM8 (S365N) and MCM8 (S764A); and 24 hours after transfection, stimulating the cells with poly(dA:dT) for 0, 12 and 24 h, collecting RNA, and detecting the mRNA level of IFN-β by Q-PCR. […] Therefore, it can be further considered that the previously found mutations A276P and S365N in MCM8 are both mutation factors that affect the function of MCM8 in regulating IFN-I and lead to Kawasaki disease, while the mutations S280C and S764A are also newly discovered mutations in systemic vasculitis such as Kawasaki disease. These two mutations may be used to diagnose or assist in the diagnosis of Kawasaki disease and systemic vasculitis diseases similar to Kawasaki disease (e.g., systemic lupus erythematosus).

[8] = tested on: LC3; test: Binding of full-length, truncated and point-mutated MCM8 to LC3
Description: Proteins that directly bind to LC3 generally have a LIR motif, the inventors, when predicting with website whether MCM8 has a LIR motif, find that the sequence between the sites MCM8 272-277 is LIR motif. According to the functional domain of MCM8, the inventors constructed truncated mutants in various truncated forms of MCM8 and detected the results of the binding thereof to LC3.
By means of 3D structure prediction, the binding of MCM8 LIR motif to LC3 was simulated (see Panels C and D, FIG. 5).

[9] = tested on: mitochondrial LC3; test: Western blot of mitochondrial LC3 and mitochondrial proteins in Hela cells overexpressing MCM8; type: cell-based; conditions: with or without LPS or SeV, vs EV control
Description: Based on the findings in Embodiment 6, MCM8 is related to the amount of cytoplasmic mtDNA and cGAS-STING-IFN-I signaling pathway, while the amount of mtDNA is related to mitophagy, and therefore, the experiment was further carried out as follows. Experiment of MCM8-knockdown inhibiting mitophagy-related proteins: in MCM8-knockdown THP-1 cells, detection indicators related to mitophagy were studied. The cells were stimulated or not stimulated with LPS and SeV, respectively, and the expressions of mitochondrial LC3 and other mitochondrial proteins TOM20, MFN2, PINK1 and COXIV were detected by western blot. It was found from the results that, compared with the control group (Ctrl siRNA), MCM8-knockdown could inhibit the activation of mitochondrial LC3 and increase the amounts of mitochondrial proteins (TOM20, MFN2, PINK1, and COXIV) (see Panel A, FIG. 4). Correspondingly, MCM8 (Flag-MCM8) was overexpressed in Hela cells, the cells were stimulated or not stimulated with LPS and SeV, respectively, and the expressions of mitochondrial LC3 and other mitochondrial proteins (TOM20, MFN2, PINK1, and COXIV) were detected by western blot.

[10] = biological target: T1, TRIM21 (Homo sapiens, UniProt P19474); test: Co-immunoprecipitation of Flag-TRIM21 and HA-MCM8 in HeLa cells; type: binding
T1 construct: Flag; expressed in transfected cells; host or cells: HeLa
T1 sequence (P19474 whole entry): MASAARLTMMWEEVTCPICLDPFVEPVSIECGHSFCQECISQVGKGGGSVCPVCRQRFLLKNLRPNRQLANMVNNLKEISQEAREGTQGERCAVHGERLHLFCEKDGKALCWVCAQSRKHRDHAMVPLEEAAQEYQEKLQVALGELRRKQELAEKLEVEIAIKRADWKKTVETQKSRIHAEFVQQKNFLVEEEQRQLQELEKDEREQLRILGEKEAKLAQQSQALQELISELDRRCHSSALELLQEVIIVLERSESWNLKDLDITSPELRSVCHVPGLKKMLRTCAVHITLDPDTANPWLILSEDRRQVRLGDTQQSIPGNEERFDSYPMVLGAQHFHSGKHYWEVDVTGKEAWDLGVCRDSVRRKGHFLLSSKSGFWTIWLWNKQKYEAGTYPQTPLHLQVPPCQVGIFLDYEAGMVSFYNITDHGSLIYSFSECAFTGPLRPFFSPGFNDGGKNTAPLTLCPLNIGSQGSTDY
Description: Further, HeLa cells were transfected with Flag-TRIM21 and HA-MCM8 and subjected to co-immunoprecipitation analysis.

[11] = stimulation with LPS and poly(dA:dT)

Molecule: CC[n+]1c(-c2ccccc2)c2cc(N)ccc2c2ccc(N)cc21.[Br-] [EtBr]
function of MCM8 in regulating IFN-I (IFN-α and IFN-β expression, Q-PCR) [1]: blocked
expression of pIRF3 protein [2]: significantly inhibited

Molecule: COc1cc(-n2c(=S)[nH]c3ccccc3c2=O)c(Cl)cc1Cl [Mdivi]
mtDNA aggregation in cytoplasm (Q-PCR) [3]: mtDNA aggregation
expression levels of IFNα and IFNβ [4]: increase in the expression levels of IFNα and IFNβ

Molecule: NS(=O)(=O)OC[C@H]1C[C@@H](Nc2ccnc3cc(-c4cccc(SC(F)(F)F)c4)nn23)[C@H](O)[C@@H]1O [TAK-243]
nuclear export of MCM8 [5, 11]: obviously inhibited

Molecule: CC(=N)NCc1cccc(CN)c1 [1400W]
nuclear export of MCM8 [5, 11]: inhibited
ubiquitination of MCM8 mediated by TRIM21 [6]: significantly inhibited

Molecule: CCC(=C/[C@H](C)C/C=C/C(C)=C/[C@@H](C)C(=O)[C@@H](C)[C@H](O)[C@@H](C)C/C(C)=C/C(=O)O)/C=C/[C@@H]1OC(=O)C=C[C@@H]1C [leptomycin B]
nuclear export of MCM8 ([5]; stimulation with SeV and LPS): significantly inhibited

direct binding to LC3 ([8]; mass spectrometry experiments): could directly bind to LC3
binding to TRIM21 upon stimulation ([10]; LPS or poly(dA:dT)): the binding increased
binding to E3 ubiquitin ligase TRIM21 ([10]; co-immunoprecipitation): could bind
B1: MCM8: Full-length MCM8 protein (SEQ ID NO: 2), overexpressed in cells (protein, listed as Homo sapiens)
chain: MNGEYRGRGFGRGRFQSWKRGRGGGNFSGKWREREHRPDLSKTTGKRTSEQTPQFLLSTKTPQSMQSTLDRFIPYKGWKLYFSEVYSDSSPLIEKIQAFEKFFTRHIDLYDKDEIERKGSILVDFKELTEGGEVTNLIPDIATELRDAPEKTLACMGLAIHQVLTKDLERHAAELQAQEGLSNDGETMVNVPHIHARVYNYEPLTQLKNVRANYYGKYIALRGTVVRVSNIKPLCTKMAFLCAACGEIQSFPLPDGKYSLPTKCPVPVCRGRSFTALRSSPLTVTMDWQSIKIQELMSDDQREAGRIPRTIECELVHDLVDSCVPGDTVTITGIVKVSNAEEGSRNKNDKCMFLLYIEANSISNSKGQKTKSSEDGCKHGMLMEFSLKDLYAIQEIQAEENLFKLIVNSLCPVIFGHELVKAGLALALFGGSQKYADDKNRIPIRGDPHILVVGDPGLGKSQMLQAACNVAPRGVYVCGNTTTTSGLTVTLSKDSSSGDFALEAGALVLGDQGICGIDEFDKMGNQHQALLEAMEQQSISLAKAGVVCSLPARTSIIAAANPVGGHYNKAKTVSENLKMGSALLSRFDLVFILLDTPNEHHDHLLSEHVIAIRAGKQRTISSATVARMNSQDSNTSVLEVVSEKPLSERLKVVPGETIDPIPHQLLRKYIGYARQYVYPRLSTEAARVLQDFYLELRKQSQRLNSSPITTRQLESLIRLTEARARLELREEATKEDAEDIVEIMKYSMLGTYSDEFGNLDFERSQHGSGMSNRSTAKRFISALNNVAERTYNNIFQFHQLRQIAKELNIQVADFENFIGSLNDQGYLLKKGPKVYQLQTM
modifications: Flag or HA tag
IFN-β level (mRNA, Q-PCR) ([7]; poly(dA:dT) 0 h): 0
IFN-β level (mRNA, Q-PCR) ([7]; poly(dA:dT) 12 h): 100
IFN-β level (mRNA, Q-PCR) ([7]; poly(dA:dT) 24 h): 250
activation of LC3 [9]: promoted the activation of LC3 more obviously
mitochondrial proteins (TOM20, MFN2, PINK1, COXIV) [9]: inhibited the increase of mitochondrial proteins

B2: MCM8 (S280C): MCM8 with point mutation S280C (protein, listed as Homo sapiens)
chain: B1 chain with S280C
IFN-β level (mRNA, Q-PCR) ([7]; poly(dA:dT) 24 h): below 250

binding to LC3 ([8]; MCM8 constructs with or without LIR motif): greatly reduced
B3: MCM8 (A276P): MCM8 with point mutation A276P in the LIR motif, found in Kawasaki disease patients (protein)
chain: B1 chain with A276P
